Source: the supplement of paper PMC10567573

B1: POMT2 (parent)
chain: YHEAPMTRKHYQVTGYGINGTGDS
B2: DVL3 (parent)
chain: YNPHPGFPELGYSYGGGSASSQHS

Variants of: B1
Assay: protein stability index of a GFP-peptide fusion (GPS, HEK-293T) (PSI 1-6); higher = more stable
Conditions: c terminus: a fixed tail appended
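Further: lentivirally expressed fusions sorted by FACS into six bins by GFP to DsRed ratio, PSI derived from sequencing read proportions per bin multiplied by bin number.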

Protein stability index: each site, then its substitutions
I18: K 2.78; L 2.64; M 2.3; N 2.42; P 2.36; Q 2.9; R 2.55; S 2.22; T 2.42; V 2.21; W 1.67; Y 2.07
N19: A 1.8; C 2.02; D 1.88; E 1.9; F 2.3; G 2.4; H 2.25; I 1.9; K 2.44; L 2.06; M 2.62; P 2.4; Q 1.84; R 1.73; S 2.3; T 2.21; V 2.03; W 2.24; Y 2.57
G20: A 2.45; C 1.86; D 2.18; E 2.4; F 2.35; H 2.26; I 2.03; K 2.08; L 2.21; M 1.98; N 2.47; P 2.24; Q 2.43; R 2.16; S 2.36; T 2.43; V 1.98; W 2.12; Y 2.39
T21: A 2.56; C 2.4; D 2.46; E 2.04; F 2.11; G 1.83; H 2.23; I 1.37; K 2.3; L 2.1; M 2.01; N 2.58; P 2.25; Q 2.12; R 2.6; S 2.19; V 1.37; W 2.15; Y 1.76
G22: A 2.26; C 1.91; D 2.17; E 2.35; F 2.3; H 2.44; I 1.68; K 2.29; L 2.28; M 2.04; N 2.18; P 3.15; Q 2.28; R 1.92; S 2.36; T 1.95; V 2.25; W 1.7; Y 2.15
D23: A 2.02; C 2.22; E 2.11; F 1.63; G 2.88; H 2.03; I 2.18; K 1.99; L 1.95; M 1.66; N 2.17; P 2.02; Q 2.44; R 1.25; S 2.14; T 1.85; V 2.42; W 1.24; Y 1.67
S24: A 2.15; C 1.81; D 2.41; E 2.29; F 1.76; G 2.57; H 1.99; I 2.16; K 2.57; L 1.64; M 1.79; N 2.11; P 2.23; Q 1.68; R 2.17; T 1.98; V 2.44; W 1.49; Y 2.1

Variants of: B2
Assay: as above
Conditions: c terminus: a fixed tail appended

Protein stability index of substitutions, site by site:
Y1: A 4.36; C 2.33; D 4.18; E 4.73; F 2.16; G 4.47; H 3.39; I 3; K 3.94; L 3.88; M 3.37; N 4.11; P 4.24; Q 4.53; R 3.52; S 3.75; T 4.25; V 3.12; W 3.49
N2: A 1.96; C 2.12; D 3.64; E 3.75; F 2.32; G 3.06; H 3.33; I 2.37; K 3.28; L 2.16; M 2.55; P 1.97; Q 2.33; R 3.09; S 2.72; T 2.23; V 1.82; W 2.48; Y 2.87
P3: A 3.07; C 3.32; D 2.81; E 2.75; F 2.7; G 2.19; H 2.95; I 2.86; K 3.43; L 3.46; M 3.01; N 2.79; Q 3.05; R 3.17; S 2.67; T 3.08; V 3.08; W 2.51; Y 3.18
H4: A 2.06; C 2.58; D 3.9; E 2.7; F 2.16; G 2.01; I 2.51; K 3.61; L 2.77; M 2.69; N 2.73; P 2.29; Q 2.56; R 2.8; S 2.1; T 2.34; V 2.75; W 2.44; Y 2.35
P5: A 2.58; C 2.22; D 3.67; E 3.27; F 2.44; G 2.32; H 2.36; I 2.4; K 2.31; L 2.59; M 2.31; N 2.75; Q 3.26; R 2.37; S 2.64; T 2.36; V 2.41; W 2.2; Y 2.35
G6: A 2.78; C 2.53; D 3.14; E 3.84; F 2.42; H 2.67; I 2.38; K 3.05; L 2.48; M 2.74; N 2.93; Q 3.44; R 2.46; S 2.69; T 2.28; V 2.7; W 1.74; Y 2.17
F7: A 2.6; C 2.85; D 2.44; E 2.7; G 3; H 2.98; I 2.87; K 3.68; L 3.35; M 3.19; N 3.38; P 3.44; Q 3.23; R 2.86; S 2.59; T 3.44; V 3.01; W 2.14; Y 2.68
P8: A 2.37; C 2.54; D 3.37; E 3.16; F 2.23; G 3.26; H 2.38; I 1.71; K 2.38; L 2.12; M 2.52; N 3; Q 2.67; R 2.7; S 2.73; T 3.11; V 2.57; W 2.48; Y 2.33
E9: A 2.3; C 2.5; D 2.11; G 2.16; H 2.19; I 1.18; K 1.8; L 3.13; M 2.69; N 2.46; P 3.58; Q 2.04; R 2.44; S 1.59; T 1.84; Y 1.14
L10: A 3.17; C 3.06; D 3.55; E 4.41; F 2.92; G 2.94; H 3.4; I 2.6; K 3.05; M 2.04; N 3.74; P 3.04; Q 3.18; R 3.64; S 3.16; T 2.98; V 3.17; W 1.3; Y 2.57
G11: A 2.76; C 2.3; D 2.82; E 3.4; H 2.46; I 2.24; K 3.13; L 2.04; M 3.03; N 2.72; P 2.29; Q 3.29; R 3.24; S 2.71; T 2.76; V 2.44; W 2.29; Y 2.66
Y12: A 2.87; C 2.27; D 4.19; E 3.79
